Test [1] has as its target T1, rabbit VCAM-1 on transfected CHO cells (rabbit, UniProt A0A5F9DFM7 25-739).
T1 construct: whole, on cells
T1 sequence: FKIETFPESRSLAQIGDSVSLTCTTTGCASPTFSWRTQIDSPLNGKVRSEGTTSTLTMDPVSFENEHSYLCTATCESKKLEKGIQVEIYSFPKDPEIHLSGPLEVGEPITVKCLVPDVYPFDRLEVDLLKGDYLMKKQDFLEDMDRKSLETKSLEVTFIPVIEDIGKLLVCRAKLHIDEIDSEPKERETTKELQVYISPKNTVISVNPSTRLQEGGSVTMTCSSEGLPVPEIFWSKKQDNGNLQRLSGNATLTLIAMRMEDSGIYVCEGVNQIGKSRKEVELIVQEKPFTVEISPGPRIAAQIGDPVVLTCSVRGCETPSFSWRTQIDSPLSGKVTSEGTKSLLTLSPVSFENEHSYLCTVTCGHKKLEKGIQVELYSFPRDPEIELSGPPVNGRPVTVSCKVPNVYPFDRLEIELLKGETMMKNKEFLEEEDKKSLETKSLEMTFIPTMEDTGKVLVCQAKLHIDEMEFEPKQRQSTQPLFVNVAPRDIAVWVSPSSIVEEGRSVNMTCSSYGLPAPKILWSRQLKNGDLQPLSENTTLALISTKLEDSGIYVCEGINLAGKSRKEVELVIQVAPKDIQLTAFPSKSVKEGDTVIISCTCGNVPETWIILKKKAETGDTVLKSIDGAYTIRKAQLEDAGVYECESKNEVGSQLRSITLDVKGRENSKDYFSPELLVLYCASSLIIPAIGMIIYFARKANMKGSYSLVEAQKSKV
Nature of the test: flow cytometry (PE-A) on CHO cells transiently transfected with rabbit VCAM-1; nanobody, then anti-His-tag mAb and anti-mouse IgG1 [Continuation), panel 8B]. The protocol:
(§1) 10⁵ CHO cells either transiently transfected or not with a plasmid coding for rabbit VCAM-1 were sequentially incubated with 1 μg of nanobodies, 1 μg of anti-His-tag monoclonal antibody (Serotec) and 200 ng of anti-mouse rat IgG₁ (BD Biosciences). The bond was measured on a FACS Canto II analyzer (BD Biosciences, Franklin Lakes, USA) and the data analysed with the FlowJo software package (TreeStar, Ashland, USA). A negative control was made by omitting the nanobody.
(A flow cytometer gives signals particle by particle.)

A further test addresses T2, human recombinant VCAM-1 (human, UniProt P19320 25-698).
T2 construct: Bought recombinant protein (RnD Systems), immobilised on a CM5 chip for SPR; also called hVCAM-1; human VCAM-1
T2 sequence (looked up): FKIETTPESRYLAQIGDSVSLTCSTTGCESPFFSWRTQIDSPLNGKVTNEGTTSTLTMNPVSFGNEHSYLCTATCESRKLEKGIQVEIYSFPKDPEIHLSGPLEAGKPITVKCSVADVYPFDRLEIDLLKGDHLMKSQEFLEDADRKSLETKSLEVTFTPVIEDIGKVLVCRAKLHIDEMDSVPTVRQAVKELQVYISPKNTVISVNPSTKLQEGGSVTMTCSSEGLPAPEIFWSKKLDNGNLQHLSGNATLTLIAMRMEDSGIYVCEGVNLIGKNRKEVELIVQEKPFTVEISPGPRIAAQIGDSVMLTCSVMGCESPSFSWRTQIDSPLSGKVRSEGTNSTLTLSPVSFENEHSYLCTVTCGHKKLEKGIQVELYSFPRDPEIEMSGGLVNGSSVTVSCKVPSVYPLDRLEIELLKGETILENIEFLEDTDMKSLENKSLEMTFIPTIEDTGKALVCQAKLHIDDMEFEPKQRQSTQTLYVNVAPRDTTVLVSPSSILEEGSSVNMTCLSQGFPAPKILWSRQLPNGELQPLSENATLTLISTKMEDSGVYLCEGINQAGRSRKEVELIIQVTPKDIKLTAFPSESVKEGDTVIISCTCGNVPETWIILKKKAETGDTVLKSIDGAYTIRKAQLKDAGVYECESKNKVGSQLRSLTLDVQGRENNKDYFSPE
Nature of the test: SPR, Biacore 3000, recombinant hVCAM-1 immobilised on CM5 chip, 1:1 model. The protocol: (§2) The affinity of human or murine recombinant VCAM-1 nanobodies was determined by SPR analysis on a Biacore 3000 apparatus. Recombinant mouse ICAM-1 (RnD Systems) was used as a negative control. The recombinant proteins were immobilized on a sensor chip CM5 (Biacore, Uppsala, Sweden) according to the instructions of manufacturer. Serial half-dilutions of the nanodbodies from 50 to 1 nM in PBS with 0.005% Tween-20® were tested. The affinity constants were determined by using adjustment of the standard association model 1:1 (BIAevaluation software package).
For orientation: Surface plasmon resonance follows binding to a sensor surface in real time, without labels.

In test [2] the target is T3, murine recombinant VCAM-1 (murine, UniProt P29533 25-698).
T3 construct: Bought recombinant protein (RnD Systems), immobilised on a CM5 chip for SPR; also called mVCAM-1; murine VCAM-1
T3 sequence (looked up): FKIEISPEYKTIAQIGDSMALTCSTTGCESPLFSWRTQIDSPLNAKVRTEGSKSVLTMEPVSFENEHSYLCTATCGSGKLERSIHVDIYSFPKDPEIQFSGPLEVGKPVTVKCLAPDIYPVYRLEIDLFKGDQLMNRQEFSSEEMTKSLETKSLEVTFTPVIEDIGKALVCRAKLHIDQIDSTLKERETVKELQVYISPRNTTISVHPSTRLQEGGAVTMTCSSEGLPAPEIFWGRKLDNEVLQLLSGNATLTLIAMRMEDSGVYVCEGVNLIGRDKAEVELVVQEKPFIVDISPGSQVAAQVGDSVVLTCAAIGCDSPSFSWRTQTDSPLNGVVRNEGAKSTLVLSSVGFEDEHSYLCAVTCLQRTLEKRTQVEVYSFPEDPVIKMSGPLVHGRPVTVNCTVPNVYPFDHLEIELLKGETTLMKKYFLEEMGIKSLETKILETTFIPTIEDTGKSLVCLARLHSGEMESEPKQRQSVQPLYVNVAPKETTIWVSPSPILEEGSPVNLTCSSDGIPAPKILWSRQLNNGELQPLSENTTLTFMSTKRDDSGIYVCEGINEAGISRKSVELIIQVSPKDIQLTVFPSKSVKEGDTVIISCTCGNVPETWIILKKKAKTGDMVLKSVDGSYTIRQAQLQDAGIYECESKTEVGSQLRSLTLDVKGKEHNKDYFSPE
In words: SPR, Biacore 3000, recombinant mVCAM-1 immobilised on CM5 chip, 1:1 model. The protocol: as §2

The target in test [3] is T1, rabbit VCAM-1 on transfected CHO cells. Nature of the test: flow cytometry (PE-A) on CHO cells transiently transfected with rabbit VCAM-1; nanobody, then anti-His-tag mAb and anti-mouse IgG1 [Continuation), panel 3B]. Here is the method:
as §1

Numbering of substitutions follows the chain as printed.

B1: cAbVCAM1-8 (VHH)
VHH: QVQLQESGGGLVQPGGSLRLSCAASGFTFSNYYMTWVRRAPGKGLEWVSRINSDGSTLYLPSVKGRFTISRDNAKNTLYLQMNSLKSEDTGWYYCVEGKSSVRGQGTQVTVSS
notes: Dromedary nanobody produced with a hexahistidine tag in E. coli; also called anti-VCAM-1 nanobody; not shown: hexahistidine tag
In the case of B1, the binding result in test [1] was “no binding (tested: 1 µg per 10^5 cells (single amount))”. Moreover, the results for the Kd (in the test with human recombinant VCAM-1; in test [2]) were 1.4 nM and 13.2 nM, respectively.

B2: cAbVCAM1-5 (VHH)
VHH: QVQLQESGGGSVQTGGSLRLSCAASGYTNSIMYMAWFRQAPGKKREGVAAIRFPDDSAYYAGSVKGRFTISHDNAKNTVYLQMNNLNPEDTAMYYCAARSSPYSFAWNDPSNYNYWGQGTQVTVSS
notes: as for B1
B2: the Kd with human recombinant VCAM-1 is 6.5 nM; in test [2], 2 nM.

B3: cAbVCAM1-3 (VHH)
VHH: QVQLQESGGGSVQAGGSLRLSCTASGFTYSSYYMSWVRQAPGKGLEWVSGINVDGSNTYYADSVKGRFTISRDNAKNTLYLQMNSLKSEDTALYYCATGSGRDSYDCYSGSWCPKGQGTQVTVSS
notes: as for B1
As for B3, the binding result in test [3] is on record as “no binding (tested: 1 µg per 10^5 cells (single amount))”. Moreover, the Kd with human recombinant VCAM-1 amounted to 9.1 nM; in test [2] it was 2.4 nM.

B4: cAbVCAM1-9 (VHH)
VHH: B3 VHH with S11L, A14P, T23A, Y29F
notes: as for B1
For the molecule B4, the Kd with human recombinant VCAM-1 came out at 5.3 nM; in test [2], 0.9 nM.

By Kd is commonly meant the equilibrium constant for the complex coming apart.

For the origin of these results see patent US20140255303A1 (UNIVERSITE JOSEPH FOURIER GRENOBLE 1, published 2014).
